According to the supplement of paper PMC9428881:
± gives the standard error.

Test: background-corrected fluorescence of 3'-dye-labeled ssDNA relative to brightest sequence (3'-GCGCG) (fraction); higher = brighter dye fluorescence (less quenching)
Procedure, shortened: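 Subtracting background from unlabeled oligos and scaling to the brightest sequence gave the reported fluorescence. Single-stranded DNA bearing a 3' Cy3 or Cy5 dye next to each of 1024 permuted pentamers was assembled on glass slides by light-directed phosphoramidite synthesis. Following a 2 h r.t. acetonitrile wash, slides were scanned at 532 or 635 nm before and after overnight ethylenediamine/ethanol deprotection, and values were averaged over 10 features per array and at least 3 syntheses.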

| Sequence | background-corrected fluorescence (dye: Cy3 (3' terminal)) | background-corrected fluorescence (dye: Cy5 (3' terminal)) |
| --- | --- | --- |
| TTTTTTGCTGATCATCATGATTTTTTTTTTTTTTTACGGC [CGGCA] | 0.594 ± 0.029 | 0.433 ± 0.049 |
| TTTTTTGATGATGATCAGCATTTTTTTTTTTTTTTCCCGT [TGCCC] | 0.585 ± 0.034 | 0.48 ± 0.021 |
| TTTTTTGATGCGCATGATGCTTTTTTTTTTTTTTTCATCA [ACTAC] | 0.483 ± 0.034 | 0.372 ± 0.026 |
| TTTTTGCATCATCAGCAGCATTTTTTTTTTTTTTTTGGTT | 0.624 ± 0.019 | 0.477 ± 0.037 |
| TTTTTTGCGCATGCGCATGCTTTTTTTTTTTTTTTATATA | 0.537 ± 0.034 | 0.431 ± 0.042 |
| TTTTTTGCTGCTGATGATGATTTTTTTTTTTTTTTAACCC [CCCAA] | 0.392 ± 0.021 | 0.294 ± 0.016 |
| TTTTTTCATGCGCATCATGATTTTTTTTTTTTTTTGATGC [CGTAG] | 0.522 ± 0.031 | 0.425 ± 0.03 |
| TTTTTTCATCATGAGCATGCTTTTTTTTTTTTTTTGGCTA [ATCGG] | 0.483 ± 0.016 | 0.42 ± 0.028 |
| TTTTTTGCGCAGCATGCTGATTTTTTTTTTTTTTTATTAC [CATTA] | 0.405 ± 0.022 | 0.334 ± 0.032 |
| TTTTTTGAGCATGAGCATGATTTTTTTTTTTTTTTCTCTC | 0.357 ± 0.036 | 0.284 ± 0.019 |
| TTTTTGCATGCTGATCATGCTTTTTTTTTTTTTTTTACGA [AGCAT] | 0.627 ± 0.026 | 0.491 ± 0.031 |
| TTTTTGCATGATGCTCATGATTTTTTTTTTTTTTTTCAGC [CGACT] | 0.492 ± 0.012 | 0.393 ± 0.047 |
| TTTTTTGATGATCATCAGCATTTTTTTTTTTTTTTCCGGT [TGGCC] | 0.729 ± 0.028 | 0.624 ± 0.064 |
| TTTTTGCAGCATCATCATGCTTTTTTTTTTTTTTTTTGGA [AGGTT] | 0.689 ± 0.02 | 0.638 ± 0.054 |
| TTTTTTGCTGCTCATGAGCATTTTTTTTTTTTTTTAAGCT [TCGAA] | 0.56 ± 0.028 | 0.402 ± 0.026 |
| TTTTTGCAGCATCAGCATCATTTTTTTTTTTTTTTTTGTG [GTGTT] | 0.524 ± 0.031 | 0.397 ± 0.019 |
| TTTTTTGAGCATGCTGCTCATTTTTTTTTTTTTTTCTAAG [GAATC] | 0.542 ± 0.044 | 0.427 ± 0.031 |
| TTTTTTCATGATCATGCTCATTTTTTTTTTTTTTTGCGAG [GAGCG] | 0.608 ± 0.03 | 0.51 ± 0.085 |
| TTTTTTCATGCTCATGCTGCTTTTTTTTTTTTTTTGAGAA [AAGAG] | 0.645 ± 0.032 | 0.513 ± 0.026 |
| TTTTTTGATCATGATCATGCTTTTTTTTTTTTTTTCGCGA [AGCGC] | 0.823 ± 0.027 | 0.792 ± 0.034 |
| TTTTTGCATGATGCTGCTGCTTTTTTTTTTTTTTTTCAAA [AAACT] | 0.562 ± 0.024 | 0.462 ± 0.051 |
| TTTTTGCATGCTGCTGCGCATTTTTTTTTTTTTTTTAAAT | 0.612 ± 0.027 | 0.454 ± 0.038 |
| TTTTTTGCTCAGCAGCATCATTTTTTTTTTTTTTTAGTTG [GTTGA] | 0.516 ± 0.037 | 0.408 ± 0.034 |

| Sequence | background-corrected fluorescence (dye: Cy3 (3' terminal)) | background-corrected fluorescence (dye: Cy5 (3' terminal)) |
| --- | --- | --- |
| TTTTTTCATCATGATGATCATTTTTTTTTTTTTTTGGCCG [GCCGG] | 0.597 ± 0.02 | 0.449 ± 0.043 |
| TTTTTTGCTGCTGCGCATGCTTTTTTTTTTTTTTTAAATA [ATAAA] | 0.564 ± 0.053 | 0.451 ± 0.031 |
| TTTTTGCATGAGCATGCTGCTTTTTTTTTTTTTTTTCTAA [AATCT] | 0.539 ± 0.023 | 0.454 ± 0.047 |
| TTTTTTGCTGCGCATGATCATTTTTTTTTTTTTTTAATCG [GCTAA] | 0.504 ± 0.0074 | 0.399 ± 0.026 |
| TTTTTTGCGCAGCATGATGATTTTTTTTTTTTTTTATTCC [CCTTA] | 0.404 ± 0.016 | 0.272 ± 0.02 |
| TTTTTTCATCATGATGATGATTTTTTTTTTTTTTTGGCCC [CCCGG] | 0.387 ± 0.028 | 0.312 ± 0.028 |
| TTTTTGCATGCTGCGCATGCTTTTTTTTTTTTTTTTAATA [ATAAT] | 0.56 ± 0.0062 | 0.458 ± 0.047 |
| TTTTTTCATCAGCATGCTGCTTTTTTTTTTTTTTTGGTAA [AATGG] | 0.573 ± 0.022 | 0.458 ± 0.031 |
| TTTTTTGCGCATGAGCATGATTTTTTTTTTTTTTTATCTC [CTCTA] | 0.41 ± 0.024 | 0.291 ± 0.02 |
| TTTTTGCATGATCAGCAGCATTTTTTTTTTTTTTTTCGTT [TTGCT] | 0.55 ± 0.029 | 0.417 ± 0.026 |
| TTTTTTGCTGAGCAGCATGATTTTTTTTTTTTTTTACTTC [CTTCA] | 0.405 ± 0.022 | 0.312 ± 0.027 |
| TTTTTTCATGAGCAGCAGCATTTTTTTTTTTTTTTGCTTT [TTTCG] | 0.5304 ± 0.0051 | 0.384 ± 0.038 |
| TTTTTTGCTGATGCTGATCATTTTTTTTTTTTTTTACACG [GCACA] | 0.504 ± 0.029 | 0.422 ± 0.054 |
| TTTTTGCATGATCATGATGCTTTTTTTTTTTTTTTTCGCA [ACGCT] | 0.569 ± 0.035 | 0.434 ± 0.029 |
| TTTTTTGATGAGCATCATGCTTTTTTTTTTTTTTTCCTGA [AGTCC] | 0.592 ± 0.034 | 0.499 ± 0.086 |
| TTTTTTGATCAGCATCAGCATTTTTTTTTTTTTTTCGTGT [TGTGC] | 0.571 ± 0.022 | 0.466 ± 0.037 |
| TTTTTGCATCATGATCAGCATTTTTTTTTTTTTTTTGCGT | 0.6597 ± 0.003 | 0.516 ± 0.061 |
| TTTTTGCATCATGCTGATGATTTTTTTTTTTTTTTTGACC [CCAGT] | 0.418 ± 0.027 | 0.3 ± 0.02 |
| TTTTTGCATGATGAGCAGCATTTTTTTTTTTTTTTTCCTT | 0.435 ± 0.027 | 0.351 ± 0.029 |
| TTTTTTCAGCATGCTGATGCTTTTTTTTTTTTTTTGTACA [ACATG] | 0.528 ± 0.0051 | 0.399 ± 0.019 |
| TTTTTGCATCATGCGCAGCATTTTTTTTTTTTTTTTGATT [TTAGT] | 0.579 ± 0.035 | 0.419 ± 0.05 |
| TTTTTTGATGCTGCGCATGATTTTTTTTTTTTTTTCAATC [CTAAC] | 0.421 ± 0.026 | 0.284 ± 0.013 |
| TTTTTTCATCATCATCAGCATTTTTTTTTTTTTTTGGGGT | 0.741 ± 0.023 | 0.626 ± 0.053 |

| Sequence | background-corrected fluorescence (dye: Cy3 (3' terminal)) | background-corrected fluorescence (dye: Cy5 (3' terminal)) |
| --- | --- | --- |
| TTTTTTGCGCATGAGCATGCTTTTTTTTTTTTTTTATCTA | 0.482 ± 0.029 | 0.368 ± 0.025 |
| TTTTTGCATCATCATGATCATTTTTTTTTTTTTTTTGGCG [GCGGT] | 0.631 ± 0.026 | 0.516 ± 0.065 |
| TTTTTGCATCATGATGATGATTTTTTTTTTTTTTTTGCCC [CCCGT] | 0.378 ± 0.032 | 0.272 ± 0.016 |
| TTTTTGCATGATCATCATGATTTTTTTTTTTTTTTTCGGC [CGGCT] | 0.546 ± 0.031 | 0.47 ± 0.042 |
| TTTTTTGCTGCTGCTGATGATTTTTTTTTTTTTTTAAACC [CCAAA] | 0.403 ± 0.035 | 0.29 ± 0.015 |
| TTTTTTGCTCAGCAGCAGCATTTTTTTTTTTTTTTAGTTT [TTTGA] | 0.577 ± 0.017 | 0.404 ± 0.022 |
| TTTTTTGCTGATGATCATCATTTTTTTTTTTTTTTACCGG [GGCCA] | 0.69 ± 0.03 | 0.551 ± 0.059 |
| TTTTTTCAGCATGATGATCATTTTTTTTTTTTTTTGTCCG [GCCTG] | 0.54 ± 0.027 | 0.429 ± 0.081 |
| TTTTTTGCTGATCATGCTGATTTTTTTTTTTTTTTACGAC [CAGCA] | 0.486 ± 0.025 | 0.38 ± 0.035 |
| TTTTTGCAGCATCATCATGATTTTTTTTTTTTTTTTTGGC [CGGTT] | 0.556 ± 0.017 | 0.457 ± 0.023 |
| TTTTTTCATGCTGCGCATCATTTTTTTTTTTTTTTGAATG [GTAAG] | 0.489 ± 0.022 | 0.367 ± 0.029 |
| TTTTTTCATCAGCATGATCATTTTTTTTTTTTTTTGGTCG [GCTGG] | 0.526 ± 0.035 | 0.405 ± 0.028 |
| TTTTTTGCTGCTGAGCATGATTTTTTTTTTTTTTTAACTC [CTCAA] | 0.418 ± 0.028 | 0.293 ± 0.019 |
| TTTTTGCATCATGATGCTCATTTTTTTTTTTTTTTTGCAG [GACGT] | 0.526 ± 0.033 | 0.425 ± 0.029 |
| TTTTTGCATGCTGCGCAGCATTTTTTTTTTTTTTTTAATT | 0.549 ± 0.014 | 0.377 ± 0.027 |
| TTTTTTGCTCAGCATGCGCATTTTTTTTTTTTTTTAGTAT [TATGA] | 0.554 ± 0.031 | 0.417 ± 0.028 |
| TTTTTTCATGCTGCTGATCATTTTTTTTTTTTTTTGAACG [GCAAG] | 0.541 ± 0.028 | 0.404 ± 0.023 |
| TTTTTTGCGCAGCAGCATGATTTTTTTTTTTTTTTATTTC [CTTTA] | 0.404 ± 0.0099 | 0.307 ± 0.019 |
| TTTTTTGATCATGATGCTGATTTTTTTTTTTTTTTCGCAC [CACGC] | 0.435 ± 0.025 | 0.342 ± 0.06 |
| TTTTTTCATCATGCTGATGCTTTTTTTTTTTTTTTGGACA [ACAGG] | 0.602 ± 0.022 | 0.435 ± 0.053 |
| TTTTTTCATGAGCAGCATCATTTTTTTTTTTTTTTGCTTG [GTTCG] | 0.465 ± 0.023 | 0.343 ± 0.021 |
| TTTTTTGCGCAGCATGCGCATTTTTTTTTTTTTTTATTAT | 0.508 ± 0.031 | 0.418 ± 0.024 |
| TTTTTTCATGCTGCTGATGATTTTTTTTTTTTTTTGAACC [CCAAG] | 0.41 ± 0.033 | 0.288 ± 0.027 |
